Target: T1, RBD-Fc (RBD-SD1 part of SARS-CoV2-S1, amino acids 319-591, fused to the constant region of rabbit IgG1 heavy … (SARS-CoV-2 (reference sequence, …, UniProt P0DTC2)))
T1 construct: source: HEK293T, cell culture supernatant, immobilized onto plates via anti-rabbit IgG
Assay: ELISA
Settings: partners not purified

B1: HK CV07-202 (antibody, V domains shown)
VH: EVQLVESGGGLIQPGGSLRLSCAASGFTVSSNYMSWVRQAPGKGLEWISVIYSGGSTFYADSVKGRFTISRDNSKNTLYLQMNSLRAEDTAVYYCARDLYYYGMDVWGQGTTVTVSS
VL: DIQLTQSPSFLSASVGDRVTITCRASQGISSYLAWYQQKPGKAPKLLIYAASTLQSGVPSRFSGSGSGTEFTLTISSLQPEDFATYYCQQLNNYSVTFGGGTKVEIK
  binding result: binds

Source: PMC7510528 (Cell, 2020)
